Laboratory results published in US20080044815A1 (published 2008).

Tests used:
Assay in all cases: forward yeast two-hybrid, β-galactosidase overlay assay
[1] = target: T1, JNK1 point mutant Tyr-320-His, fused to the B42 activation domain (pJG4-5) (human, UniProt Q91Y86 1-384 (mouse entry))
T1 construct: Full-length JNK1 single point mutant; two-hybrid prey; also called Y320H; Y320→H320

[2] = target: T2, JNK1 point mutant Arg-309-Trp, fused to the B42 activation domain (pJG4-5) (human, UniProt Q91Y86 1-384 (mouse entry))
T2 construct: Full-length JNK1 single point mutant; two-hybrid prey; also called R309W; R309→W309

[3] = target: T3, JNK1 point mutant Leu-131-Arg, fused to the B42 activation domain (pJG4-5) (human, UniProt Q91Y86 1-384 (mouse entry))
T3 construct: Full-length JNK1 single point mutant; two-hybrid prey; also called L131R; L131→R131

Measured: binding result

B1: TI-JIP (Truncated Inhibitor of JNK based on JIP) fused to the LexA DNA-binding domain, from pGILDA-TI-JIP (peptide)
chain: MKALTARQQEVFDLIRDHISQTGMPPTRAEIAQRLGFRSPNAAEEHLKALARKGVIEIVSGASRGIRLLQEEEEGLPLVGRVAAGEPLLAQQHIEGHYQVDPSLFKPNADFLLRVSGMSMKDIGIMDGDLLAVHKTQDVRNGQVVVARIDDEVTVKRLKKQGNKVELLPENSEFKPIVVDLRQQSFTIEGLAVGVIRNGDWLRPKRPTTLNLF
notes: 11-residue peptide expressed in yeast as a C-terminal fusion with LexA (two-hybrid bait); also called bait
no binding: all assays above
